# Source: US8597509B2, “Countercurrent chromatography rotor” (CC Biotech LLC, priority 2008, dated 2013)
# Test: Partition coefficient K in two-phase aqueous system PEG (1000) 12.5%-K2HPO4 12.5%
# Assay type: physicochemical
# Settings: PEG (MW 1000) 12.5%-K2HPO4 12.5% two-phase aqueous solvent system
# From the text: A determination of the partition coefficient, K, is made by dissolving a small sample into a solvent system, shaking the mixture, and measuring the concentration of the sample in both phases after separation of the phases. That provides the ratio of concentration in the upper to lower phase (Cu/Cl). The phase chosen as the mobile phase is that giving a partition coefficient of 1 to 2. The efficiency of a separation will be determined by use of the conventional gas chromatographic equation: N=(4R/W)^2. The theoretical plates or N is calculated from the shape of the peaks. R is the retention time or volume of the peak maximum and W is the peak width expressed in the same units as R. For preparative separations, the values of N may be up to 1000, but the more important relationship is resolution. Resolution between adjacent peaks is given by: RS=2(VR,2−VR,1)/(W1+W2). Using that equation and substituting each solute retention volume by the following: VR=Vm+KVS. The Vm term cancels giving: RS=2(K2−K1)Vs/(W1+W2).
# The apparatus of interest can be used to separate proteins or other large molecules. In this example, the spiral tube support was made as described above and used to purify mouse uteroglobin. Mouse uteroglobin has a MW of […] and normally exists as a dimer; but, in solution, a monomeric form of the protein can also accumulate. A separation was made in the spiral tube support to separate uteroglobin monomers from uteroglobin dimers. This was done by measuring the K value using HPLC and then separating the protein using countercurrent chromatography with the spiral tube support apparatus. […] The heights of the peaks representing the monomer at 31.5 min. and dimer at 32.8 min. HPLC retention time, respectively, were measured and the ratios give different values for the concentration in the upper phase over that of the lower phase. The two protein peaks calculated to K values of 4.0 and 6.9 in PEG (1000) 12.5%-K2HPO4 12.5%. The different K values mean that the two species could be separated with one or the other phase mobile. Since the numeric value is over two, the analyte would remain in the coil a long time, ultimately being eluted in approximately four to seven column volumes. Consequently, a run was performed for two column volumes and then the contents of the column were extruded and analyzed.
# In this example, 31 mg lysozyme (14.4 kDa) and 24 mg myoglobin (17.7 kDa) were mixed and separated using the countercurrent chromatography apparatus and methods of use as claimed. A non-denaturing two-phase aqueous solvent system consisting of 12.5% PEG (MW 1000):12.5% K2HPO4 provides for a polyethylene-rich upper phase and phosphate buffer-rich lower phase. The lower phase was used as the mobile phase at a flow rate of 1 ml/min. […]
row,Substance,K value (concentration in upper phase over lower phase)
1,lysozyme,1.35
2,myoglobin,0.38
3,uteroglobin dimer: dimeric form of mouse uteroglobin protein,6.9
4,uteroglobin monomer: monomeric form of mouse uteroglobin protein,4.0
